Assay results from publication PMC1447668, “Foxp3 Represses Retroviral Transcription by Targeting Both NF-κB and CREB Pathways” (PLoS Pathogens, 2006).

Target: cAMP-responsive element binding protein CREB-1 (UniProt P16220 1-327)
Experiment: cell-based or functional assay

Sequence of cAMP-responsive element binding protein CREB-1 (P16220 whole entry): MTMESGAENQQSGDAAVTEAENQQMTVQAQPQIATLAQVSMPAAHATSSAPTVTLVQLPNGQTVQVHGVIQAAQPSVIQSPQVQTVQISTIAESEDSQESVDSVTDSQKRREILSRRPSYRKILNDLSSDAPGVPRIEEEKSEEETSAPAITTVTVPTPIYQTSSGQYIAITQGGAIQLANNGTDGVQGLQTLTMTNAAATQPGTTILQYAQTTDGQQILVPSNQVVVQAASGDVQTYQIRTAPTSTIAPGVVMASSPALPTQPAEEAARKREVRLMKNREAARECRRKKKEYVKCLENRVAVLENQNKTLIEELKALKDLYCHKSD

B1: human Foxp3 (natural protein, UniProt Q9BZS1 1-431, looked up)
chain: MPNPRPGKPSAPSLALGPSPGASPSWRAAPKASDLLGARGPGGTFQGRDLRGGAHASSSSLNPMPPSQLQLPTLPLVMVAPSGARLGPLPHLQALLQDRPHFMHQLSTVDAHARTPVLQVHPLESPAMISLTPPTTATGVFSLKARPGLPPGINVASLEWVSREPALLCTFPNPSAPRKDSTLSAVPQSSYPLLANGVCKWPGCEKVFEEPEDFLKHCQADHLLDEKGRAQCLLQREMVQSLEQQLVLEKEKLSAMQAHLAGKMALTKASSVASSDKGSCCIVAAGSQGPVVPAWSGPREAPDSLFAVRRHLWGSHGNSTFPEFLHNMDYFKFHNMRPPFTYATLIRWAILEAPEKQRTLNEIYHWFTRMFAFFRNHPATWKNAIRHNLSLHKCFVRVESEKGAVWTVDELEFRKKRSQRPSRCSNPTPGP
- basal levels of Gal4-BD-CREB-1 activation of a Gal4 luciferase reporter in HEK 293T cells with Foxp3 overexpressed (Figure 7C): > 2 fold
